Target: human activated blood coagulation factor X (FXa) (human)
Test: SPR; […]; 37°C; HBS (10 mM Hepes, 150 mM NaCl, 5 mM CaCl2, 0.005% P20, pH 7.4); Langmuir fit; […]

**Q.** Which results are given for “Myotoxin II from Bothrops asper venom (from UniProt P24605 17-137) (natural protein)”?
**A.** Kd: 1.8 nM; koff: 0.0178 s⁻¹; kon: 1.04e+07 M⁻¹ s⁻¹

Reference: paper PMC2248580
